According to patent publication US20080226682A1, “Immunoactive Compositions for Improved Oral Delivery of Vaccines and Therapeutic Agents” (PerOs Systems Technologies, Inc., priority 2007, published 2008):
Entries after “also recorded” stand apart in the source; their conditions may differ.

B1: PNA: peanut (Arachis hypogaea) lectin (protein, UniProt P02872 24-273, looked up)
Galactose-binding lectin: AETVSFNFNSFSEGNPAINFQGDVTVLSNGNIQLTNLNKVNSVGRVLYAMPVRIWSSATGNVASFLTSFSFEMKDIKDYDPADGIIFFIAPEDTQIPAGSIGGGTLGVSDTKGAGHFVGVEFDTYSNSEYNDPPTDHVGIDVNSVDSVKTVPWNSVSGAVVKVTVIYDSSTKTLSVAVTNDNGDITTIAQVVDLKAKLPERVKFGFSASGSLGGRQIHLIRSWSFTSTLITTTRRSIDNNEKKIMNMASA
B2: PSA: small pea (Pisum sativum) lectin (protein, UniProt P02867 31-217; P02867 218-275, looked up)
Lectin beta chain: TETTSFLITKFSPDQQNLIFQGDGYTTKEKLTLTKAVKNTVGRALYSSPIHIWDRETGNVANFVTSFTFVINAPNSYNVADGFTFFIAPVDTKPQTGGGYLGVFNSAEYDKTTQTVAVEFDTFYNAAWDPSNRDRHIGIDVNSIKSVNTKSWKLQNGEEANVVIAFNAATNVLTVSLTYPNSLEEEN
Lectin alpha chain: VTSYTLSDVVSLKDVVPEWVRIGFSATTGAEYAAHEVLSWSFHSELSGTSSSKQAADA

Columns and labels:
Feline PBMC = assay: Immune cell proliferation, tetrazolium colorimetric reading (Stimulation Index)
feline immune cells = assay: Leukocyte mitogenic response (BrdU-based ELISA, stimulation index); assay type: cell-based; settings: purified lectin at mitogen concentration (5-40 μg/mL), day 4
Trout HK Cells = assay: Immune cell proliferation, tetrazolium colorimetric reading (Stimulation Index); assay type: cell-based
swine immune cells = assay: Leukocyte mitogenic response (BrdU-based ELISA, stimulation index); assay type: cell-based; settings: purified lectin at mitogen concentration (5-40 μg/mL), day 4
Source text: (§1) Lymphocytes are a representative immune system prototypic cell that may be used in in vitro assays for immunological effects of lectins, saponins and other components of natural plant or animal products. Exemplary lymphocytes for representative target species may be obtained and used in the Examples disclosed herein. The effects of various compositions on lymphocyte proliferation is examined using a standard tetrazolium based colorimetric assay (MTT). An Alamar blue-based colorimetric assay gave equivalent results to [^3H]-thymidine incorporation assay. The MTT colorimetric assay has also been used in lymphocyte proliferation assays using chicken splenocytes. These and other known assays may be utilized in the methods disclosed herein.
(§2) In one non-limiting example, cells from anterior fish kidney are obtained by forcing the aseptically removed tissue through a 100 μm cell strainer into L-15 medium supplemented with 2% fetal bovine serum (FBS), 100 U mL^−1 penicillin, 100 μg mL^−1 streptomycin, and 10 U mL^−1 sodium heparin (Processing medium, PM). The single-cell suspension is removed from the settled tissue fragments and cells are pelleted by centrifugation at 500×g for 10 min at 4° C. […]
(§3) The number of viable kidney or blood leukocytes isolated from each fish is determined by trypan blue exclusion (0.1% trypan blue in PM), and the cells are pelleted as described above.
(§4) Mitogen concentrations used to stimulate the isolated leukocytes are as follows: 10 μg mL^−1 SBA, 10 μg mL^−1 PHA-E or PHA-L, 5 μg mL^−1 LBL, 20 μg mL^−1 LCA or LOA, 10 μg mL^−1 ConA, 40 ug mL^−1 PSA and 5 μg mL^−1 PNA. […] The mitogenic response is measured on the fourth day of incubation post-mitogen stimulation using a BrdU-based ELISA at room temperature as described (Gauthier, D. T. 2003). Stimulation index (SI) values are calculated as the replicate mean optical density for a given set of mitogen-treated leukocytes divided by the replicate mean optical density of the associated mitogen free (control) leukocytes. […]

Chicken PBMC = assay: Immune cell proliferation, tetrazolium colorimetric reading (Stimulation Index)
Swine PBMC = assay: as above
salmon immune cells = assay: Leukocyte mitogenic response (BrdU-based ELISA, stimulation index); assay type: cell-based; settings: purified lectin at mitogen concentration (5-40 μg/mL), day 4
Sheep PBMC = assay: Immune cell proliferation, tetrazolium colorimetric reading (Stimulation Index)
bovine immune cells = assay: Leukocyte mitogenic response (BrdU-based ELISA, stimulation index); assay type: cell-based; settings: purified lectin at mitogen concentration (5-40 μg/mL), day 4
human immune cells = assay: as above; assay type: cell-based; settings: purified lectin at mitogen concentration (5-40 μg/mL), day 4
Calf PBMC = assay: Immune cell proliferation, tetrazolium colorimetric reading (Stimulation Index)
equine immune cells = assay: Leukocyte mitogenic response (BrdU-based ELISA, stimulation index); assay type: cell-based; settings: purified lectin at mitogen concentration (5-40 μg/mL), day 4
Mouse Splenocytes = assay: Immune cell proliferation, tetrazolium colorimetric reading (Stimulation Index); assay type: cell-based, BALB/c mice
canine immune cells = assay: Leukocyte mitogenic response (BrdU-based ELISA, stimulation index); assay type: cell-based; settings: purified lectin at mitogen concentration (5-40 μg/mL), day 4
trout immune cells = assay: as above; assay type: cell-based; settings: purified lectin at mitogen concentration (5-40 μg/mL), day 4
Source text: as §1, §2, §3, §4

shrimp immune cells = assay: as above; assay type: cell-based; settings: purified lectin at mitogen concentration (5-40 μg/mL), day 4

Molecule	lowest concentration of lectins required for stimulation response above background (Feline PBMC) [μg/ml ug/ml]	Immunomodulatory effect (stimulation index class) (feline immune cells)	lowest concentration of lectins required for stimulation response above background (Trout HK Cells)	Immunomodulatory effect (stimulation index class) (swine immune cells)	lowest concentration of lectins required for stimulation response above background (Chicken PBMC)	lowest concentration of lectins required for stimulation response above background (Swine PBMC) [µg/mL]	Immunomodulatory effect (stimulation index class) (salmon immune cells)	lowest concentration of lectins required for stimulation response above background (Sheep PBMC) [µg/mL]	Immunomodulatory effect (stimulation index class) (bovine immune cells)	Immunomodulatory effect (stimulation index class) (human immune cells)	lowest concentration of lectins required for stimulation response above background (Calf PBMC) [µg/mL]	Immunomodulatory effect (stimulation index class) (equine immune cells)	lowest concentration of lectins required for stimulation response above background (Mouse Splenocytes)	Immunomodulatory effect (stimulation index class) (canine immune cells)	Immunomodulatory effect (stimulation index class) (trout immune cells)	Immunomodulatory effect (stimulation index class) (shrimp immune cells)
SBA: Soybean (Glycine max) Lectin	1	+ (between 1 and 4.9 is assigned a value of + (weak mitogen))	refractory; also recorded: Negative	−− (<1 is assigned a value of −− (anti-mitogenic))	Negative	50	+++ (≧10 is assigned a value of +++ (strong mitogen))	50	+ (between 1 and 4.9 is assigned a value of + (weak mitogen))	++ (between 5 and 9.9 is assigned a value of ++ (moderate mitogen))	50	−− (<1 is assigned a value of −− (anti-mitogenic))	Negative	–	–	–
B1	–	+++ (≧10 is assigned a value of +++ (strong mitogen))	–	–	–	–	+++ (≧10 is assigned a value of +++ (strong mitogen))	–	+ (between 1 and 4.9 is assigned a value of + (weak mitogen))	+ (between 1 and 4.9 is assigned a value of + (weak mitogen))	–	++ (between 5 and 9.9 is assigned a value of ++ (moderate mitogen))	–	++ (between 5 and 9.9 is assigned a value of ++ (moderate mitogen))	−− (<1 is assigned a value of −− (anti-mitogenic))	−− (<1 is assigned a value of −− (anti-mitogenic))
B2	–	−− (<1 is assigned a value of −− (anti-mitogenic))	–	–	–	–	−− (<1 is assigned a value of −− (anti-mitogenic))	–	+++ (≧10 is assigned a value of +++ (strong mitogen))	++ (between 5 and 9.9 is assigned a value of ++ (moderate mitogen))	–	+ (between 1 and 4.9 is assigned a value of + (weak mitogen))	–	+ (between 1 and 4.9 is assigned a value of + (weak mitogen))	+++ (≧10 is assigned a value of +++ (strong mitogen))	+++ (≧10 is assigned a value of +++ (strong mitogen))
